# Results as given in a protein production outcome set (Wang et al. 2014).
# Experiment: label from the status in PepcDB records
# 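Further: failed if final PepcDB status was selected cloned or expressed and not failed if soluble or beyond.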
row,Sequence,protein production
1,MALHSSSDQYGSVAVTIHWLTAVLIVIALLTGFRAAAAEDVTTEAALLRVHLPAAALVLVLTVVRVVWWLGIDDKPEPIDGAPRSQQLIAGTVHLLFYVVVFGMIASGIGMMLASGAAPAIFSRDVPALPEFWHYRPRIPHGLGARLLVLLLIAHLAAALYHHLRGDRVFRRMWFGRNPKS,failed
2,MALKPTIYKFRIALSDMNNDYYDSKNLTIALHPSEKPQRMLARILAFCLNAQKDLEFTKGLSTTEEPDLWHVADDQSITHWIEIGEPEPDRIKKASRLAKQVKVYTYNTKAPVWWEKMSGKFSMLPVSVESFDYDAIDMICQHLDRGTNLSVMITGTSIFVDVNDQHVEVTVKELQSHDAP,not failed
3,MALKTDIRGMIWRYPDYFIVGREQCREFARAVKCDHPAFFSEEAAADLGYDALVAPLTFVTILAKYVQLDFFRHVDVGMETMQIVQVDQRFVFHKPVLAGDKLWARMDIHSVDERFGADIVVTRNLCTNDDGELVMEAYTTLMGQQGDGSARLKWDKESGQVIRTALEHHHHHH,failed
4,MALLRRFIGQKVRTVIQVTGSEIGSVVGKSTDDLQIVVRGSSPPSPLTTYLEVIGIAESDNAIRAETWTNFGNTFDTQNYNELCKLAN,failed
5,MALPQLSIWQPGDGLRKIKYKYHVCLIVIFSVLIRLLFLTDRYLWCDEASSVLISRHSVDNLLFHAAFDVHPPLYYLLLHDWIILLGDSIAAVRSLSLLFGILTVVLVIALTRWLANERTALLAGWFAALMPMAVHYSQETRMYALMGMLTLAAALALMMWIKTPTHNRYLVAYALLMTFSFYTHYFTLFTLIAHWIAVTILSCQSHKTACYLKLPGWWFANLAIAVAYLPWLPVLFNLLTHLAQLRAGNDIGWIPPVTWRDLPAMYWHFFTGNNGQGFPSFILWLAVGGFIGTVGRISLYNGEYERYQLILFCNLVIPVMLVFIISWWMPLFIDRYFFFSSLSIPPLLAVLLTRAKKAVCGFWFILFTLLFGYGSYHNNPEHIDEFKPLVNYINTRHQPNDAVVVSKMFDYLSYVYYNKRDYRTFLYTPPNAHGTSGRPNAYGFGSLFYAQADQTYIDTLTTLSKSYHRVWLVSGGNFSQDYPLPSEWQNIAKFRSGRFQVQLFVIPTQQARQMQ,failed
6,MALQAGVEKGENLVVAAPTGSGKTFIALVAIVNSLARAGGRAFYLVPLKSVAYEKYTSFSILSRMGLKLKISVGDFREGPPEAPVVIATYEKFDSLLRVSPSLARNVSVLIVDEIHSVSDPKRGPILESIVSRMLASAGEAQLVGLSATVPNAGEIAEWIGGKIVESSWRPVPLREYVFKEYKLYSPTGGLREVPRVYGLYDLDLAAEAIEDGGQALVFTYSRRRAVTLAKRAAKRLGRRLSSREARVYSAEASRAEGAPRSVAEELASLIAAGIAYHHAGLPPSLRKTVEEAFRAGAVKVVYSTPTLAAGVNLPARRVVIDSYYRYEAGFREPIRVAEYKQMAGRAGRPGLDEFGEAIIVAERLDRPEDLISGYIRAPPERVESRLAGLRGLRHFILGIVAPEGEVSIGSIEKVSGLTLYSLQRGLPRETIARAVEDLSAWGLVEVKGWRIAATSLGREVAAVYLDPESVPVFREEVKHLSFDNEFDILYLISTMPDMVRLPATRREEERLLEAILDASPRMLSSVDWLGPEEMAAVKTAVVLKLWIDEASEDTIYGEWGVHTGDLLNMVSTAEWIASGLSRIAPYLGLNSKVSHILSVIARRIKHGVKPELLQLVEIPGVGRVRARILFEAGYRSIEDLATARAEDLMRLPLIGPSTARQILEFLGRVDEAREAEAREMLARKGLLSYLEGDAVAGEEGE,failed
7,MALRKIAGLYRIEKFIRERPVEKIRQWRQRYSRPIVNDLFAWPEEQEPCCPPDGPLNKAINYILNRRDELSCFLSDGAVPLDNNICERAIRPVVMGRKAWLFAGSLMAGNRAAQIMSLLETAKRNGLEPHAWLTDVLTRLPEWPEDRLEELLPLEGFTFSG,failed
8,MALRLALSLCVYLLFTQGAQGNTDDFDCVEIYKQPAFQHPLLKDHKIQETFSLDGKIERSNKYNTKEHCPKGTVAILRQRNVSKGVHLNTAEYSGQHFATIETILDGSIYRGAEADISIHDLKLQNNQYSKSQIWLENGPPGQLNSIQAGLAVHPRLYGDSVTRFTIYWTGDGYQKTGCYNTQCPGFVVVSRNSRIGSGFWGTSVYGKTSLTFKLQVFQDGFSGNWALKMFDEVIGYWPKELFSHLNNGASLVRYGGNTFESPDGISPPMGNGFFPVADFKKTAHFNNVVVINSDYKRVYIEGRKIRLYVDSYNCFRATYWGYTKSTGEAFSFGGPGGNCGF,failed
9,MALRTLSTFPSLPRRHTTTRREPNLTVIYRNPTTSIVCKSIANSEPPVSLSERDGFAAAAPTPGERFLENQRAHEAQKVVKKEIKKEKKKKKEEIIARKVVDTSVSCCYGCGAPLQTSDVDSPGFVDLVTYELKKKHHQLRTMICGRCQLLSHGHMITAVGGNGGYPGGKQFVSADELREKLSHLRHEKALIVKLVDIVDFNGSFLARVRDLVGANPIILVITKIDLLPKGTDMNCIGDWVVEVTMRKKLNVLSVHLTSSKSLDGVSGVASEIQKEKKGRDVYILGAANVGKSAFINALLKTMAERDPVAAAAQKYKPIQSAVPGTTLGPIQINAFVGGEKLYDTPGVHLHHRQAAVVHSDDLPALAPQNRLRGQSFDISTLPTQSSSSPKGESLNGYTFFWGGLVRIDILKALPETCFTFYGPKALEIHAVPTKTATAFYEAKLGVLLTPPSGKNQMQEWKGLQSHRLLQIEINDAKRPASDVAISGLGWISIEPIRKTRGTEPRDLNEAEHEIHICVSVPKPVEVFLRPTLPIGTSGTEWYQYRELTDKEEEVRPKWYF,failed
10,MALRVTFVAAARSSPLLAERFDDERPLDQAGWNEALRAAGDLLPLAAAELRYCSPTPRSRATGDAIGCAPLSQLALRACDMGRWRGLTLGEAMAREPAAVDAWLADPRSAPHGGESLLGFITRVGGWLDTRPGEDGDRIVAVAEPSVIRAALVYALKAPPGTYWNLDVRPLSTTTVTGRAGRWSLRFEGTPDQGATRPAFRGGNPL,failed
11,MALTPDQMPDRAEVVFTCNGKAVGKMRNELDVAMVKPFEERFALATDEGAFHGGDASAPPPLALFIAGLTGCVMTQIRAFAKRLKVTVTDLDVECRVVWDWAKAGPVYETGPKSFEIDIILHSPDPIEAQQALIEAAKKGCFLEQTLGQANTIRHRLKVGDTFIDA,not failed
12,MALTTISPHDAQELIARGAKLIDIRDADEYLREHIPEADLAPLSVLEQSGLPAKLRHEQIIFHCQAGKRTSNNADKLAAIAAPAEIFLLEDGIDGWKKAGLPVAVNKSQPLPLMRQVQIAAGGLILIGVVLGYTVNSGFFLLSGFVGAGLLFAGISGFCGMARLLDKMPWNQRA,failed
13,MALVRSLFVSNKILGGSLAGMRKSTSAPKGFLAVYVGESQKKQRYLVLVSYLSQPLFQDLLSKSEEEFGFDHPMGGLTIPCPEDTFLTVTSRIQG,failed
14,MAMEIGEDEWKVCCGSSEFAKQMSTSGPLTSQEAIYTARDIWFNQVNVTDWLEAFSAHPQIGNTPSPSINSDFARRSVSEQSTAFATTSASALQELAEWNVLYKKKFGFIFIICASGRTHAEMLHALKERYENRPIVELEIAAMEQMKITELRMAKLFSDKAKVISETDSSSSPVSTKPQDRLRIIGGHLNVAAEAKAPKRSRPPITTHVLDVSRGAPAAGVEVHLEVWSGTTGPSFVHGGGGVWSSVGTSATDRDGRSGPLMDLVDALNPGTYRISFDTAKYSPGCFFPYVSIVFQVTESQKWEHFHVPLLLAPFSFSTYRGS,failed
15,MAMEKPVLWYIADPMCSWCWGFAPVIENIRQEYSAFLTVKIMPGGLRPGTNTPLLPEKRAQILHHWHSVHITTGQPFTFENALPEGFIYDTEPACRGVVSVSLIEPEKVFPFFAAIQRAFYVGQEDVAQLAILKKLAVDLGIPESRFTPVFQSDEAKQRTLAGFQRVAQWGISGFPALVVESGTDRYLITTGYRPIEALRQLLDTWLQQHGV,not failed
16,MAMMAKHQAVKKIFDQIATKYDLIDTIISLGLDQHWRRVLVSSLGLREGMRCLDCGAGSGKVTELIYFRCGGCDVTALDITDSMFNPELKKYVKFVVSPAESLPFPDASFDRVSSAFLTRNLADIDRYFAEVYRVLRPGGVFVNMDIYNPTRPVISEFFSLYFYRFVPFFGNRATGSKNYTYLANTVKYFHRPSVISQKLADRGFSVEATDLFFGAVYLHRSVKPEGRGLEHHHHHH,failed
17,MAMRDLVNGGAACAVPGSSSSSNPLGALTNALLGSSSKTQERLKEIPNANRSGPRPQFYSEDQQIRSLPGSELDQPLLQPGAQGSEFFRGFRSVDQNGLGAAWDEVQQGGPMPPMGPMFEPVQPTFEGPPQRVLSNFLHSFVESSRGGIPFRPAPVPVLGLSQSDKQCIRDRSSIMARHFFADRGEEFINSQVNALLSSLDIDDGIQARGHVPGRFRELDDYWNESQAVVKPNLHPADNWAAEFNQHGMDHGGPDSWVQSFEQQHGVNGWATEFEQGQSQLMSSQMRSMDMQNIAAMEQTRKLAHTLSQDGNPKFQNSRFLQFVSKMSRGELIIDENQVKQASAPGEWATEYEQQYLGPPSWADQFANEKLSHGPEQWADEFASGRGQQETAEDQWVNEFSKLNVDDWIDEFAEGPVGDSSADAWANAYDEFLNEKNAGKQTSGVYVFSDMNPYVGHPEPMKEGQELFRKGLLSEAALALEAEVMKNPENAEGWRLLGVTHAENDDDQQAIAAMMRAQEADPTNLEVLLALGVSHTNELEQATALKYLYGWLRNHPKYGAIAPPELADSLYHADIARLFNEASQLNPEDADVHIVLGVLYNLSREFDRAITSFQTALQLKPNDYSLWNKLGATQANSVQSADAISAYQQALDLKPNYVRAWANMGISYANQGMYKESIPYYVRALAMNPKADNAWQYLRLSLSCASRQDMIEACESRNLDLLQKEFPL,failed
18,MAMSLSGAVLSGMGSSFHNVGAKQSGVGTVRVGRKSELVVVAQRKKSLIYAVKSDGNILDDLNEATKKASDFVTDKTKEALADGEKTKDYIVEKTIEANETATEEAKKALDYVTEKGKEAGNKAAEFVEGKAEEAKNATKS,failed
19,MANADLDKQPDSVSSVLKVFGILQALGEEREIGITELSQRVMMSKSTVYRFLQTMKTLGYVAQEGESEKYSLTLKLFELGARALQNVDLIRSADIQMRELSRLTKETIHLGALDEDSIVYIHKIDSMYNLRMYSRIGRRNPLYSTAIGKVLLAWRDRDEVKQILEGVEYKRSTERTITSTEALLPVLDQVREQGYGEDNEEQEEGLRCIAVPVFDRFGVVIAGLSISFPTLRFSEERLQEYVAMLHTAARKISAQMGYHDYPF,not failed
20,MANDIDRAGVAKAYARWAPIYDLVFGKVFDSGRQSTIAVADAIGGRVLDVGVGTGLSLSDYSKTTRLCGVDISEPMLRKAHERVRTLNLSNVDVLAVMDAKNLAFPANYFDAVVAQYVITAVPDPEATLDDFIRVLKPGGELILVNHIGAESGPRKLFELAFSPIARRLGWRPEFPWQRLVNWAARHRGVELAERRPMPPMGHFSLIRYRKLLEHHHHHH,failed
21,MANEATQELFQVLDNTAIILQNELEISYLEAVYETGENLFQKEVLQKEELSSEKQLKLQESYESIELENFSNEEIRKGLQLALLKGMKHGIQVNHQMTPDSIGFIVAYLLEKVIQKKKNISILDPACGTANLLTTVINQLELKGDVDVHASGVDVDDLLISLALVGADLQRQKMTLLHQDGLANLLVDPVDVVISDLPVGYYPDDENAKTFELCREEGHSFAHFLFIEQGMRYTKPGGYLFFLVPDAMFGTSDFAKVDKFIKKNGHIEGIIKLPETLFKSEQARKSILILRKADVNVKPPKEVLLANLSSLTDPSVTAPILAEIENWFKSKQ,not failed
22,MANFEDFLTLDLRIGTVTHAEEFKEARVPAIKLEIDFGELGMKQSSAQITKRYNPEDLIGQQIVAVVNFPPKRVAGFKSEVLVLGGVPEAGDVVLLQPNMELPNGTKIS,not failed
